# Substrate: Nc1nc2c(ncn2[C@@H]2O[C@H](COP(=O)(O)OP(=O)(O)OP(=O)(O)O)[C@@H](O)[C@H]2O)c(=O)[nH]1
# Assay: Malachite green phosphate release, Michaelis-Menten fit
# Assay type: biochemical, Sulfolobus acidocaldarius
# Settings: 65 °C, 0-500 µM GTP, 50 mM Tris pH 8.0, 150 mM NaCl, 10 mM MgCl2, 10 µM SaGPN
protein,measurement,value
"SaGPN (Sulfolobus acidocaldarius DSM 639) (protein, E. coli BL21(DE3) Rosetta; Y2-A240 built, 14 C-terminal residues disordered) MYFIFVLGTAGSGKTTLVKALQDYLLNNELDTAIINLDPAVEVLPYKPDIDAREYVDVYDVMNKYELGPNSSLVISVDLLLTKAKELKEDLNQLQANYVLVDTPGQIELFAYRDTGKILSSFISEGSKSVSVFLFDSYLSKDPKSFLSLFLLSSSIKFRIDMPQISVLSKVDLLSSSELERMRSWIEDGSIIDELGSIDEYSFELVKTIVENLESFPIPVSSTNFSGLDQLYAEVQKVLAGGEDFETEEPNPRL",Km,40.48 µM
